Measurements reported in article PMC4653306, “Metagenomics of an Alkaline Hot Spring in Galicia (Spain): Microbial Diversity Analysis and Screening for Novel Lipolytic Enzymes” (Frontiers in Microbiology, 2015).

Substrate: CCCCCCCCCCCC(=O)Oc1ccc([N+](=O)[O-])cc1
Assay: spectrophotometric p-nitrophenol release (A400), initial rates, Michaelis-Menten fit
Assay type: biochemical, uncultured organism
Details: extracellular medium of recombinant yeast, Tris/HCl pH 7.5, CaCl2, 40 °C, pNP12 0.002-2.5 mM
Description: spectrophotometric p-nitrophenol release (A400), initial rates, Michaelis-Menten fit on LOB4Est

B1: LOB4Est (uncultured organism) (protein)
chain: SRPRTAVHDRVLELVQQQIAAGQQLGVQVCAYQNGEKIVDIVAGVMGPDDPRPVQPDTLFNSFSTTKGVAATALHILAEQGKLEYEQPVARYWPAFAANGKERVTVAQAMSHQAGLHAMPTPSTIETLCDWEGGLNWVASGVPAWEPGTATGYHAITYAWVVGGIVYGATGRHIKDVIREEIAIPLGVADELFVGIPEGVEDRLATLAVPAPGEGMALPIPPDHDFFKAMPPSLGGHVYNDMRVRRACLPSANGHFSARALAKMYAALAGGGVVDGVRLVSPERIALMQRILTADMDRVLMLPLRKGVGFMMGGPVNGVSGVFGPRETAFGHSGAGGSTAFCDPETGLAVAVTINQMQMTLQAEGPTYAICQLIREELGCA
notes: yeast alpha-factor secretion signal fusion (removed on secretion), N-terminal FLAG-tag kept; secreted by Saccharomyces cerevisiae BJ3505 (YEpFLAG-1), assayed as unpurified extracellular medium
Km: 298 µM | Vmax: 264 µM/min
